For assay [1], the target named is T1, Recombinant Human IL-1α (human, UniProt P01583 113-271).
T1 construct: Bought recombinant protein; Biotinylated in the capture ELISA; also called hIL-1α; IL-1 alpha
T1 sequence (looked up): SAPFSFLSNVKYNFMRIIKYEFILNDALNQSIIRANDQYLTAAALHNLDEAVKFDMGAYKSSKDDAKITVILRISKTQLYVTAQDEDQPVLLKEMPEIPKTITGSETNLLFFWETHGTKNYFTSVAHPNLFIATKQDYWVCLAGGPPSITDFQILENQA
In words: capture ELISA: antibody captured by anti-human Fc, biotinylated antigen titrated. The method, then:
Plates were washed five times in washing buffer (PBS containing 0.05% Tween 20) and blocked for 1 hour at 25° C. with 200 μl per well superblock blocking buffer (Thermo scientific, #37515). Blocking buffer was removed, and 2 μg/ml of each antibody or DVD-Ig molecule in PBS containing 10% superblock, 0.5% Tween-20 was added to the wells at 100 μl per well and incubated at 25° C. for 1 hour. The wells were washed five times in 1×PBST, and 1 μg/ml biotinylated antigen was titrated at 1:6 serial dilutions (for a range of μg to pg in PBS containing 10% superblock, 0.05% tween 20). Each dilution of antigen was then added to the plates and incubated for 1 hour at 25° C. The wells were washed five times in 1×PBST and incubated for 1 hour at 25° C. with polyHRP streptavidin (KPL #474-3000, Gaithersburg, Md.). The wells were washed five times in 1×PBST, and 100 μl of ULTRA-TMB ELISA (Pierce, Rockford, Ill.) were added per well. Following color development the reaction was stopped with 1N HCL and absorbance at 450 nm is measured.
(In an ELISA, binding on a coated surface is turned into a signal by an enzyme label.)

For assay [2], the target named is T1, Recombinant Human IL-1α. Description: cell-based or functional assay.
The target of assay [3] is T2, Cynomolgus IL-1α (cynomolgus, UniProt P79340 113-271, limits assumed).
T2 construct: also called cyno IL-1α; cynomolgus IL-1 alpha
T2 sequence (looked up): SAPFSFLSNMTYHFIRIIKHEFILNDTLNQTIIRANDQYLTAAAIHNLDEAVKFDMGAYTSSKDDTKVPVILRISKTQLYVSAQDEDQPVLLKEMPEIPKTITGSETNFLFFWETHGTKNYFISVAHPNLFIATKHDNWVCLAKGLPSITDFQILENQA
In words: SPR (BIACORE), cynomolgus antigen. A general note: In SPR one partner is held on a chip, and binding of the other changes the refractive index at the surface.

Assay [4] has as its target T1, Recombinant Human IL-1α. In words: SPR (BIACORE), human antigen. How it is done: The BIACORE assay (Biacore, Inc, Piscataway, N.J.) determines the affinity of antibodies or DVD-Ig molecule with kinetic measurements of on-rate and off-rate constants. Binding of antibodies or DVD-Ig molecule to a target antigen (for example, a purified recombinant target antigen) is determined by surface plasmon resonance-based measurements with a Biacore® 1000 or 3000 instrument (Biacore® AB, Uppsala, Sweden) using running HBS-EP (10 mM HEPES [pH 7.4], 150 mM NaCl, 3 mM EDTA, and 0.005% surfactant P20) at 25° C. All chemicals are obtained from Biacore® AB (Uppsala, Sweden) or otherwise from a different source as described in the text. For example, approximately 5000 RU of goat anti-mouse IgG, (Fcγ), fragment specific polyclonal antibody (Pierce Biotechnology Inc, Rockford, Ill.) diluted in 10 mM sodium acetate (pH 4.5) is directly immobilized across a CM5 research grade biosensor chip using a standard amine coupling kit according to manufacturer's instructions and procedures at 25 μg/ml. Unreacted moieties on the biosensor surface are blocked with ethanolamine. Modified carboxymethyl dextran surface in flowcell 2 and 4 is used as a reaction surface. Unmodified carboxymethyl dextran without goat anti-mouse IgG in flow cell 1 and 3 is used as the reference surface. For kinetic analysis, rate equations derived from the 1:1 Langmuir binding model are fitted simultaneously to association and dissociation phases of all eight injections (using global fit analysis) with the use of Biaevaluation 4.0.1 software. Purified antibodies or DVD-Ig molecule are diluted in HEPES-buffered saline for capture across goat anti-mouse IgG specific reaction surfaces. Antibodies or DVD-Ig molecule to be captured as a ligand (25 μg/ml) are injected over reaction matrices at a flow rate of 5 μl/min. The association and dissociation rate constants, kₒₙ (M⁻¹s⁻¹) and koff (s⁻¹) are determined under a continuous flow rate of 25 μl/minute. Rate constants are derived by making kinetic binding measurements at different antigen concentrations ranging from 10-200 nM. The equilibrium dissociation constant (M) of the reaction between antibodies or DVD-Ig molecules and the target antigen is then calculated from the kinetic rate constants by the following formula: KD=koff/kₒₙ. Binding is recorded as a function of time and kinetic rate constants are calculated.

The target of assay [5] is T2, Cynomolgus IL-1α. In words: cell-based or functional assay.

B1: 3D12.10/15 (antibody, human IgG1, kappa, L234A L235A, V domains shown)
VH: EVQLVQSGAEVKKPGVSVKVSCKASGYTFTTYGMHWVRQAPGQGLEWMGWINTYTGESTYADDFQGRVTFTLDTSTSTAYMELSSLRSEDTAVYFCARGIYYYGSSYAMNYWGQGTTVTVSS
VL: DIQMTQSPSSLSASVGDRVTITCRASQDISNMLNWYQQKPGKTPKLLIYYTSRLYPGVPSRFSGSGSGTDYTFTISSLQPEDIATYFCQQGKTLPYAFGQGTKLEIKR
notes: Parent anti-IL-1α antibody; also called 3D12 10/15VH; 3D12 10/15VL
Take B1: the concentration for a half-maximal effect (EC50) in the assay with Recombinant Human IL-1α [1] is 0.007 nM. Besides, the “Human IL-1α Neutralization Assay EC50 (IL-1 induced hIL-8, MRC-5 cells)” value in the assay with Recombinant Human IL-1α [2] is 0.0057 nM. In the assay with Cynomolgus IL-1α [3], the equilibrium dissociation constant (Kd) was found to be 0.0578 nM, the koff turned out to be 2.25e-05 s⁻¹ and the kon was 389000 M⁻¹ s⁻¹. Further, in the assay with Recombinant Human IL-1α [4], the equilibrium dissociation constant (Kd) worked out at 0.115 nM, the koff is 4.1e-05 s⁻¹ and the kon was found to be 355000 M⁻¹ s⁻¹. Also, the “Cyno IL-1α Neutralization Assay EC50 (IL-1 induced hIL-8, MRC-5 cells)” value with Cynomolgus IL-1α [5] is 0.0126 nM.

B2: 3D12r16 (antibody, human IgG1, kappa, L234A L235A, V domains shown)
VH: EVQLVQSGAEVKKPGASVKVSCKASGYTFKYYGMNWVRQAPGQGLERMGWINTYTGQSTYADDFKGRVTFTLDTSTSTAYMELSSLRSEDTAVYYCARDIYYYGSDFAMDYWGQGTTVTVSS
VL: DIQMTQSPSSLSASVGDRVTITCRASQDISNMLNWYQQKPGKAPKLLIYYTSRLKPGVPSRFSGSGSGTDYTFTISSLQPEDIATYFCQQGKTAPYTFGQGTKLEIKR
notes: Parent anti-IL-1α antibody; also called 3D12r16VH; 3D12r16VL
With B2, the EC50 in the assay with Recombinant Human IL-1α [1] is 0.072 nM. For the same molecule, in the assay with Recombinant Human IL-1α [2], the “Human IL-1α Neutralization Assay EC50 (IL-1 induced hIL-8, MRC-5 cells)” value turned out to be 0.00056 nM. Moreover, in the assay with Recombinant Human IL-1α [4], the equilibrium dissociation constant (Kd) worked out at 0.031 nM, the off-rate constant (koff) stood at 2.77e-05 s⁻¹ and the on-rate constant (kon) came to 900000 M⁻¹ s⁻¹. The “Cyno IL-1α Neutralization Assay EC50 (IL-1 induced hIL-8, MRC-5 cells)” value with Cynomolgus IL-1α [5] is 0.0008 nM.

B3: 3D12.8 (antibody, human IgG1, kappa, L234A L235A, V domains shown)
VH: EIQLVQSGSELKKPGASVKVSCKASGYTFTNYGMNWVRQAPGQDLERMAWINTYTGESTYADDFKGRFVFSLDTSVSTAYLQISSLKAEDTAVYFCARGIYYYGSSYAMDYWGQGTTVTVSS
VL: DIQMTQSPSSLSASVGDRVTITCRASQDISNCLNWYQQKPGKTPKLLIYYTSRLHSGVPSRFSGSGSGTDYTFTISSLQPEDIATYFCQQGKTLPYAFGQGTKLEIKR
notes: Parent anti-IL-1α antibody; also called 3D12.8VH; 3D12.8VL
Take B3: in the assay with Recombinant Human IL-1α [1], the EC50 is 0.028 nM. Moreover, in the assay with Recombinant Human IL-1α [4], the Kd is 1.35 nM, the koff turned out to be 0.00274 s⁻¹ and the on-rate constant (kon) came out at 2.04e+06 M⁻¹ s⁻¹.

B4: 3D12.16 (antibody, human IgG1, kappa, L234A L235A, V domains shown)
VH: EIQLVQSGAEVKKPGASVKVSCKASGYTFTNYGMNWVRQAPGQDLERMAWINTYTGESTYADDFKGRFTFTLDTSTSTAYMELSSLRSEDTAVYFCARGIYYYGSSYAMDYWGQGTTVTVSS
VL: DIQMTQSPSSLSASVGDRVTITCRASQDISNCLNWYQQKPGKTPKLLIYYTSRLHSGVPSRFSGSGSGTDYTFTISSLQPEDIATYFCQQGKTLPYAFGQGTKLEIKR
notes: Parent anti-IL-1α antibody; also called 3D12.16VH; 3D12.16VL
In the case of B4, the half-maximal effective concentration (EC50) with Recombinant Human IL-1α [1] was 0.01 nM. Also, in the assay with Recombinant Human IL-1α [4], the Kd is 2.09 nM, the koff was 0.00253 s⁻¹ and the on-rate (kon) came out at 1.21e+06 M⁻¹ s⁻¹.

By EC50 is commonly meant the concentration that produces a half-maximal response. As usually defined, the Kd is the concentration at which binding is half-saturated. Broadly, the koff is the first-order rate constant of dissociation. The term kon denotes the rate constant with which the complex forms.

These data come from patent publication US20120189541A1 (AbbVie / Abbott, published 2012).
